Measurements taken from doi:10.1101/544353.
“And” between values parts separate entries of the source, which are not always exact repeats. Identical values can stand only once. Like-named read-outs stand apart in the source and are kept apart here. Values belong to the substance of their own block, whether it stands above or below them.

Tests used:
[1] = biological target: Photosystem I (PSI) of Microcystis sp. PCC 7806 (Microcystis sp. PCC 7806 (endogenous)); test: native gel or EMSA
[2] = biological target: Photosystem I (PSI) of Synechocystis sp. PCC 6803, wild type (Synechocystis sp. PCC 6803 (endogenous)) (UniProt P37277); test: native gel or EMSA
[3] = biological target: Photosystem I (PSI) of Chroococcidiopsis sp. PCC 6712 (Chroococcidiopsis sp. PCC 6712 (endogenous)); test: transmission electron microscopy with single particle analysis
[4] = biological target: Photosystem I (PSI) of Chroococcidiopsis sp. PCC 6712 (Chroococcidiopsis sp. PCC 6712 (endogenous)); test: native gel or EMSA
[5] = biological target: Photosystem I (PSI) of Nodularia PCC 73104 (Nodularia PCC 73104 (endogenous)); test: native gel or EMSA
[6] = biological target: Photosystem I (PSI) of Fischerella muscicola PCC 7414 (Fischerella muscicola PCC 7414 (endogenous)); test: transmission electron microscopy with single particle analysis
[7] = biological target: Photosystem I (PSI) of Fischerella muscicola PCC 7414 (Fischerella muscicola PCC 7414 (endogenous)); test: native gel or EMSA
[8] = biological target: Photosystem I (PSI) of Fischerella muscicola PCC 7414 (Fischerella muscicola PCC 7414 (endogenous)); test: native gel or EMSA; remark: listed apart in the source
[9] = biological target: Photosystem I (PSI) of Nostoc sp. PCC 7120 (Nostoc sp. PCC 7120 (endogenous)); test: native gel or EMSA
[10] = biological target: Photosystem I (PSI) of Chroococcidiopsis sp. PCC 7434 (Chroococcidiopsis sp. PCC 7434 (endogenous)); test: native gel or EMSA
[11] = biological target: Photosystem I (PSI) of Planktothrix paucivesiculata PCC 8926 (Planktothrix paucivesiculata PCC 8926 (endogenous)); test: native gel or EMSA
[12] = biological target: Photosystem I (PSI) of Pseudanabaena sp. B SP48 (Pseudanabaena sp. B SP48 (endogenous)); test: native gel or EMSA
[13] = biological target: Photosystem I (PSI) of Nostoc sp. PCC 9335 (Nostoc sp. PCC 9335 (endogenous)); test: native gel or EMSA
[14] = biological target: Photosystem I (PSI) of Chroococcidiopsis sp. TS-821 (Chroococcidiopsis sp. TS-821 (endogenous)); test: sucrose density gradient ultracentrifugation
[15] = biological target: Photosystem I (PSI) of Chroococcidiopsis sp. TS-821 (Chroococcidiopsis sp. TS-821 (endogenous)); test: native gel or EMSA
[16] = biological target: Photosystem I (PSI) of Chroococcidiopsis sp. TS-821 (Chroococcidiopsis sp. TS-821 (endogenous)); test: native gel or EMSA; remark: listed apart in the source
[17] = biological target: Photosystem I (PSI) of Chroococcidiopsis thermalis PCC 7203 (Chroococcidiopsis thermalis PCC 7203 (endogenous)); test: native gel or EMSA
[18] = biological target: Photosystem I (PSI) of Synechocystis sp. PCC 7509 (Synechocystis sp. PCC 7509 (endogenous)); test: native gel or EMSA
[19] = biological target: Photosystem I (PSI) of Thermosynechococcus elongatus BP-1 (Thermosynechococcus elongatus BP-1 (endogenous)); test: native gel or EMSA
[20] = biological target: Photosystem I (PSI) of Leptolyngbya sp. PCC 7124 (Leptolyngbya sp. PCC 7124 (endogenous)); test: native gel or EMSA
[21] = biological target: Photosystem I (PSI) of Gloeocapsa sp. PCC 7428 (Gloeocapsa sp. PCC 7428 (endogenous)); test: native gel or EMSA
[22] = biological target: Photosystem I (PSI) of Gloeocapsa sp. PCC 7428 (Gloeocapsa sp. PCC 7428 (endogenous)); test: native gel or EMSA; remark: listed apart in the source

- stoichiometry N [1]: 2 and 3
Substance: Photosystem I (PSI) of Microcystis sp. PCC 7806 (complex)

- stoichiometry N [2]: 3
Substance: Photosystem I (PSI) of Synechocystis sp. PCC 6803, wild type (from UniProt P37277 1-157) (complex)

- stoichiometry N [3]: 3
- stoichiometry N [4]: 3
Substance: Photosystem I (PSI) of Chroococcidiopsis sp. PCC 6712 (complex)

- stoichiometry N [5]: 4
Substance: Photosystem I (PSI) of Nodularia PCC 73104 (complex)

- stoichiometry N [6]: 4
- stoichiometry N [7]: 4
- stoichiometry N [8]: 3
Substance: Photosystem I (PSI) of Fischerella muscicola PCC 7414 (complex)

- stoichiometry N [9]: 4
Substance: Photosystem I (PSI) of Nostoc sp. PCC 7120 (complex)

- stoichiometry N [10]: 2
Substance: Photosystem I (PSI) of Chroococcidiopsis sp. PCC 7434 (complex)

- stoichiometry N [11]: 3
Substance: Photosystem I (PSI) of Planktothrix paucivesiculata PCC 8926 (complex)

- stoichiometry N [12]: 3
Substance: Photosystem I (PSI) of Pseudanabaena sp. B SP48 (complex)

- stoichiometry N [13]: 3 and 2
Substance: Photosystem I (PSI) of Nostoc sp. PCC 9335 (complex)

- stoichiometry N [14]: 2
- stoichiometry N [15]: 4 and 2
- stoichiometry N [16]: 3
Substance: Photosystem I (PSI) of Chroococcidiopsis sp. TS-821 (complex)

- stoichiometry N [17]: 2
Substance: Photosystem I (PSI) of Chroococcidiopsis thermalis PCC 7203 (complex)

- stoichiometry N [18]: 4 and 2
Substance: Photosystem I (PSI) of Synechocystis sp. PCC 7509 (complex)

- stoichiometry N [19]: 3
Substance: Photosystem I (PSI) of Thermosynechococcus elongatus BP-1 (complex)

- stoichiometry N [20]: 2
Substance: Photosystem I (PSI) of Leptolyngbya sp. PCC 7124 (complex)

- stoichiometry N [21]: 4 and 2
- stoichiometry N [22]: 3
Substance: Photosystem I (PSI) of Gloeocapsa sp. PCC 7428 (complex)
